The values that follow come from a protein production outcome set (Wang et al. 2014).

This data set can be described thus: label from the status in PepcDB records.

In the case of “MSKIKWSNLWKGFAMGTTDLVPGVSGGTIALLLGIYDDFIRSISGLFSKRFWESLKFLLPIGIGMVVAIGLLSKLINYLLSTHTVPTMFFFVGLIGGIIPYLLKTSRFKHTFTTPHYLLLVVGIIVIVMMTVMNSGDKHAGETLSLSTGLILKYFIAGACASSAMLLPGISGSFMLLVFGVYGTIMYAISEFVSLNFAALPILITVGCGVLFGFLCSSKLIQYLLSYYTYLTYALIIGFVIGSLYAVFPGLPSTIMIWIVSIVTLLLGFVISYRLGRLTAD”, the protein production result is “failed”.

Take “MSKKGFFEYKLSKEIVRALTGLGYDHPTEVQGEVIPVALQKKDLVVKSQTGSGKTASFGIPLCEMVEWEENKPQALVLTPTRELAVQVKEDITNIGRFKRIKAAAIYGKSPFARQKLELKQKTHIVVGTPGRVLDHIEKGTLSLERLKYLVIDEADEMLNMGFIDQVEAIIDELPTNRMTMLFSATLPEDVERLSRTYMNAPTHIEIKAAGITTDKIEHTLFEAIEDEKFSLLKDVTTIENPDSCIIFCRTQENVDHVYRQLKRANYPCDKIHGGMVQEDRFEVMDDFRKGKFRYLVATDVAARGIDIDNITHVINYDIPLEKESYVHRTGRTGRAGNSGKAITFITPYENRFLEEIEEYIGFEIPKAIGPSKEEVMKGKAAFEEKIHAKPIIKKDKNADINKGIMKLYFNGGKKKKIRAVDFVGTIAKIKGVTAEDIGIITIQDNVSYVEILNGKGPLVLKVMKTTTIKGKQLKVHEAIK”: the protein production entry was “failed”.

For “MSKKPPNRPGITFEIGARLEALDYLQKWYPSRIEKIDYEEGKMLVHFERWSHRYDEWIYWDSNRLRPLERPALRKEGLKDE”, the protein production entry was “not failed”.

Regarding “MSKKSVLITSLMLFSMFFGAGNLIFPPMLGLSAGTNYLPAILGFLATSVLLPVLAIIAVVLSGENVKDMASRGGKIFGLVFPIAAYLSIGAFYALPRTGAVSYSTAVGVDNALYSGLFNFVFFAVALALSWNPNGIADKLGKWLTPALLTLIVVLVVLSVAKLDGTPGEPSSAYAQQPAGAGLLEGYMTMDAIAALAFGIVVISAFKYQKVNKVRTATVVSAFIAGILLALVYLGLGSIGQVVNGEFADGTAILNYAALSTMGQAGRIMFVAILILACMTTAVGLISATSEFFNSLLPGVKYHVWATVFALISFGVATMGLDTVLAVAAPVISFIYPSAITLVFLSLIEPLLFRLKWTYLFGIWTAVVWALFMSIPALNPFIEWAPLHSMSLGWVVPVLVASAIGLAIDWNKKGAQSVAKKESISV”, the protein production result is given as “failed”.

In the case of “MSKKVIADVFLEVANAIESGEFGKKVKIGVTTLGSEHGVENMVNGAQLAKSNLFDIVLIGPKVETDLEVVEVNDEKEMHAKMEELLDSGYIDACVTMHYNFPIGVSTVGRVITPAKGKEMILATTTGTSATNRIEAMVRNAIYGIATAKSMGNKCPKVGILNVDGARQVEKCLKELKDNGYDMEFADSIRADGGCVMRGNDLLVGAPDVMVTDTLSGNIFMKVFSSYTTGGDYEAQGFGYGPGVGEDYDRKVLIVSRASGSPVVANALKYAYDVVKGDISNVARNEFAKVKKAKFDDIISSLTKKEVKAEKVEVKMPDKEIVTRQIAGVDIMDLEDAVSELWKNGIYAESGMGCTGPIVLVNEAKGDLAVETLVKAGYTAK”, the protein production result was “failed”.

With “MSKLIVPQWPQPKGVAACSSTRIGGVSLPPYDSLNLGAHCGDNPDHVEENRKRLFAAGNLPSKPVWLEQVHGKDVLKLTGEPYASKRADASYSNTPGTVCAVMTADCLPVLFCNRAGTEVAAAHAGWRGLCAGVLEETVSCFADNPENILAWLGPAIGPRAFEVGGEVREAFMAVDAKASAAFIQHGDKYLADIYQLARQRLANVGVEQIFGGDRCTYTENETFFSYRRDKTTGRMASFIWLI”, the protein production entry is “not failed”.

Regarding “MSKLSIRNLTKIFGPHPEKALGLLEQGLGKEEIHRRTSHAVGVDRASFDVEEGEIVVVMGLSGSGKSTLVRCLNRLIEPTAGTVTVDGRDVTSMPVDELRRLRQRSFGMVFQNFALFPHRTVLQNAAFGLEAMGVPRAERERQAMVSLERVGLAEWAASRPAQLSGGMQQRVGLARALSLDPDILLMDEAFSALDPLIRRDMQDELLRLQDDLQKTIVFISHDLDEALKLGDRIVLMRDGAVVQIGTPEDILTNPADDYVARFVGEADVTKVLTAGSVMKRSEAVAVLGIDGPRTALRKMRRNAIATLFVLDERHRLVGLITADDAARLAAEGVRELGSIVRRDIATVPPEAPATELISLMADLPHPLAVVDERGRLAGVIVRGLLLGALAERGGVALEHHHHHH”, the protein production entry is reported as “not failed”.

Consider “MSKNIGLNAIEMSYLRQSLSLSAAQVGQLTNHSEAEVLAWENAETQAPELAQKKLLDIDDIIEMQVLNTTDGIEALFKKEPKRHLAFVVYPTQAIYTQYNPEFLSSLPLTELYNTAAWRIKKECKLVLEVDVSLINLNVEAYKAYREQNGLSESRESRAKWAATQL”, for which the protein production result is given as “not failed”.

On to “MSKNYQVLAKKIIDIVGVDNVESVTHCQTRLRFVVKDPKQIDKAALEDLDEVKGVFFGSGQYQVIIGTGVVNDVYDAIEKLHLVNAIYSQETTTTPTPDNQKSPLQRFMAMLSGIFIPIIPVIAATGLFLGLQSALTNNQVLQLFGTSSAAIPASLNTVISVLTGTVFSFLPALIVWSTFRYFKGTPIVGIVIGLMLVSPSLPNAYSVAGGTAKAIMLFDRIPVIGSQGSVLTALVAGFLGSKLEHYFHKHVPNVLDQILTPFLTMLVTFGIMILGVGPVVHWIENVMISGVEGLINLPFGIGGFLIGAAYPLMVLVGIHQMMIAIETSLLAATKLNPLITLEAMYGFANLGVALAMILRAKSQKAKANFIGAFSSQLFGVSEPTLFGVLIRYNFKPLVVTVLTSGIGAGVLSVMSVAANSYGLAVVPSYLMYIYNVRDLLIYTVVSLLTVAVAFIATNMFAIPKDILKSDQVQPKIVDDTIFSPVSGKSIALSTVNDPVFASKMMGDGIAIKPQEQGPVKVYAPQSGQMSVVADTGHAYGLTTNNGVELLIHIGIDTVSLKGQGFKVIVKPGQTVQKGDLLGEFDSTVLKAANLDDTVMVIVTNSKNYQRIESEPNQSIQSGAALLAIQGRPEMTTATAS”, for which the protein production entry was “failed”.

“MSKPFMFEKPFGMRDTLPEWYKTKKNICDQMTEEINLWGYDMIETPTLEYYETVGVVSAILDQQLFKLLDQQGNTLVLRPDMTAPIARLVASSLKDRAYPLRLAYQSNVYRAQQNEGGKPAEFEQLGVELIGDGTASADGEVIALMIAALKRAGLSEFKVAIGHVGYVNALLMDVVGNEQRADRLRRFLYEKNYVGYREHVKSLNLSTIDKSRLMNLLSLRGGRAAIEEARGLIQTEKGKTALAEMTKLYEVLESYGASEYVKFDLTLVLHMSYYTGVVFEGYGNRLGVPLCSGGRYDELLSKFHRPAQATGFGVRIDLLVEALNGEIISNGHEQTCILFSNERRFEAIELARKKRANGEAVVLQDLAGVTDVDAMSSNYQDVIYCIGTAGRGGEDA”: the protein production result was “not failed”.

Regarding “MSKPGTPKHGAGSSSAAAAPEKISKYNISTEKCGDLTVIVQGDLSQQEKRAVFITVHDLGCNHNSFQEFVSSPCMTEIKERSCFIHVDVPGHADNAEALADGFPFPSLQSLGEDLVTVLDYLHVKYVIGLGEGAGANVLARFGLAHPSRVLGLILINATGSAASVVQSFKNKFISWKSDEVAQSAESFLMYHKFGHQIVGENPDKEKIVAEYQKRLHRSLNSKNIGLYVKAFMNRKDLTLKGCKVDVILITGMLSPYASMVEKLHRDVEKERVTILKIERAGDVLADAPGKVAQSILLFCKGQGLLTSVVMPGVDRGRAFSTASSGSLEGANGSRRLSRGISMEDYDKPNIRRLSIMNSELPKKE”, the protein production result is given as “failed”.
